{"source": "the supplement of paper PMC10567573", "parents": {"B1": {"name": "ZNF263 (parent)", "chain": "QRTHTGEKPYKCPECGEIFAHSSN"}}}
{"variants_of": "B1", "assay": "protein stability index of a GFP-peptide fusion (GPS, HEK-293T) (PSI 1-6); higher = more stable", "conditions": "c terminus: a fixed tail appended"}
{"variant": "QRTHTGESPYKCPECGEIFAHSSN", "protein stability index": 3.36}
{"variant": "QRTHTGEHPYKCPECGEIFAHSSN", "protein stability index": 3.35}
{"variant": "QRTNTGEKPYKCPECGEIFAHSSN", "protein stability index": 3.28}
{"variant": "QRTDTGEKPYKCPECGEIFAHSSN", "protein stability index": 3.98}
{"variant": "QRTGTGEKPYKCPECGEIFAHSSN", "protein stability index": 3.25}
{"variant": "QRTLTGEKPYKCPECGEIFAHSSN", "protein stability index": 3.4}
{"variant": "QRTVTGEKPYKCPECGEIFAHSSN", "protein stability index": 2.85}
{"variant": "QRTFTGEKPYKCPECGEIFAHSSN", "protein stability index": 3.37}
{"variant": "QRTTTGEKPYKCPECGEIFAHSSN", "protein stability index": 3.02}
{"variant": "QRTMTGEKPYKCPECGEIFAHSSN", "protein stability index": 3.44}
{"variant": "QRTPTGEKPYKCPECGEIFAHSSN", "protein stability index": 3.27}
{"variant": "QRTQTGEKPYKCPECGEIFAHSSN", "protein stability index": 3.52}
{"variant": "QRTRTGEKPYKCPECGEIFAHSSN", "protein stability index": 3.58}
{"variant": "QRTCTGEKPYKCPECGEIFAHSSN", "protein stability index": 3.29}
{"variant": "QRTETGEKPYKCPECGEIFAHSSN", "protein stability index": 3.02}
{"variant": "QRTKTGEKPYKCPECGEIFAHSSN", "protein stability index": 3.77}
{"variant": "QRTATGEKPYKCPECGEIFAHSSN", "protein stability index": 2.92}
{"variant": "QRTSTGEKPYKCPECGEIFAHSSN", "protein stability index": 3.7}
{"variant": "QRTWTGEKPYKCPECGEIFAHSSN", "protein stability index": 3.08}
{"variant": "QRTYTGEKPYKCPECGEIFAHSSN", "protein stability index": 2.77}
{"variant": "QRTITGEKPYKCPECGEIFAHSSN", "protein stability index": 3.01}
{"variant": "QRHHTGEKPYKCPECGEIFAHSSN", "protein stability index": 3.51}
{"variant": "QRIHTGEKPYKCPECGEIFAHSSN", "protein stability index": 2.93}
{"variant": "QRPHTGEKPYKCPECGEIFAHSSN", "protein stability index": 3.37}
{"variant": "QRQHTGEKPYKCPECGEIFAHSSN", "protein stability index": 2.86}
{"variant": "QRSHTGEKPYKCPECGEIFAHSSN", "protein stability index": 3.43}
{"variant": "QRFHTGEKPYKCPECGEIFAHSSN", "protein stability index": 2.67}
{"variant": "QRDHTGEKPYKCPECGEIFAHSSN", "protein stability index": 3.5}
{"variant": "QRVHTGEKPYKCPECGEIFAHSSN", "protein stability index": 3.04}
{"variant": "QRMHTGEKPYKCPECGEIFAHSSN", "protein stability index": 3.43}
{"variant": "QRWHTGEKPYKCPECGEIFAHSSN", "protein stability index": 2.53}
{"variant": "QRNHTGEKPYKCPECGEIFAHSSN", "protein stability index": 3.79}
{"variant": "QRYHTGEKPYKCPECGEIFAHSSN", "protein stability index": 2.58}
{"variant": "QRKHTGEKPYKCPECGEIFAHSSN", "protein stability index": 3.28}
{"variant": "QRRHTGEKPYKCPECGEIFAHSSN", "protein stability index": 2.85}
{"variant": "QREHTGEKPYKCPECGEIFAHSSN", "protein stability index": 3.51}
{"variant": "QRLHTGEKPYKCPECGEIFAHSSN", "protein stability index": 3.31}
{"variant": "QRAHTGEKPYKCPECGEIFAHSSN", "protein stability index": 3.55}
{"variant": "QRGHTGEKPYKCPECGEIFAHSSN", "protein stability index": 4.28}
{"variant": "QRCHTGEKPYKCPECGEIFAHSSN", "protein stability index": 3.27}
{"variant": "QRTHTGSKPYKCPECGEIFAHSSN", "protein stability index": 3.05}
{"variant": "QRTHTGIKPYKCPECGEIFAHSSN", "protein stability index": 2.62}
{"variant": "QRTHTGWKPYKCPECGEIFAHSSN", "protein stability index": 2.03}
{"variant": "QRTHTGDKPYKCPECGEIFAHSSN", "protein stability index": 3.08}
{"variant": "QRTHTGNKPYKCPECGEIFAHSSN", "protein stability index": 2.72}
{"variant": "QRTHTGLKPYKCPECGEIFAHSSN", "protein stability index": 2.49}
{"variant": "QRTHTGQKPYKCPECGEIFAHSSN", "protein stability index": 3.16}
{"variant": "QRTHTGKKPYKCPECGEIFAHSSN", "protein stability index": 3.29}
{"variant": "QRTHTGPKPYKCPECGEIFAHSSN", "protein stability index": 3.42}
{"variant": "QRTHTGCKPYKCPECGEIFAHSSN", "protein stability index": 3.93}
{"variant": "QRTHTGMKPYKCPECGEIFAHSSN", "protein stability index": 3.4}
{"variant": "QRTHTGFKPYKCPECGEIFAHSSN", "protein stability index": 2.71}
{"variant": "QRTHTGVKPYKCPECGEIFAHSSN", "protein stability index": 2.35}
{"variant": "QRTHTGGKPYKCPECGEIFAHSSN", "protein stability index": 3}
{"variant": "QRTHTGAKPYKCPECGEIFAHSSN", "protein stability index": 2.65}
{"variant": "QRTHTGHKPYKCPECGEIFAHSSN", "protein stability index": 3.44}
{"variant": "QRTHTGTKPYKCPECGEIFAHSSN", "protein stability index": 3.01}
{"variant": "QRTHTGYKPYKCPECGEIFAHSSN", "protein stability index": 2.36}
{"variant": "QRTHTGRKPYKCPECGEIFAHSSN", "protein stability index": 2.33}
{"variant": "QRTHTGEKCYKCPECGEIFAHSSN", "protein stability index": 3.53}
{"variant": "QRTHTGEKWYKCPECGEIFAHSSN", "protein stability index": 2.74}
{"variant": "QRTHTGEKDYKCPECGEIFAHSSN", "protein stability index": 3.68}
{"variant": "QRTHTGEKEYKCPECGEIFAHSSN", "protein stability index": 3.26}
{"variant": "QRTHTGEKGYKCPECGEIFAHSSN", "protein stability index": 3.58}
{"variant": "QRTHTGEKFYKCPECGEIFAHSSN", "protein stability index": 3.22}
{"variant": "QRTHTGEKMYKCPECGEIFAHSSN", "protein stability index": 3.12}
{"variant": "QRTHTGEKLYKCPECGEIFAHSSN", "protein stability index": 3.65}
{"variant": "QRTHTGEKYYKCPECGEIFAHSSN", "protein stability index": 2.99}
{"variant": "QRTHTGEKNYKCPECGEIFAHSSN", "protein stability index": 3.58}
{"variant": "QRTHTGEKRYKCPECGEIFAHSSN", "protein stability index": 3.94}
{"variant": "QRTHTGEKTYKCPECGEIFAHSSN", "protein stability index": 3.43}
{"variant": "QRTHTGEKIYKCPECGEIFAHSSN", "protein stability index": 2.83}
{"variant": "QRTHTGEKSYKCPECGEIFAHSSN", "protein stability index": 3.59}
{"variant": "QRTHTGEKVYKCPECGEIFAHSSN", "protein stability index": 3.5}
{"variant": "QRTHTGEKQYKCPECGEIFAHSSN", "protein stability index": 3.25}
{"variant": "QRTHTGEKAYKCPECGEIFAHSSN", "protein stability index": 3.52}
{"variant": "QRTHTGEKKYKCPECGEIFAHSSN", "protein stability index": 3.62}
{"variant": "QRTHTGEKHYKCPECGEIFAHSSN", "protein stability index": 3.78}
{"variant": "QRTHTGEKPYACPECGEIFAHSSN", "protein stability index": 3.56}
{"variant": "QRTHTGEKPYGCPECGEIFAHSSN", "protein stability index": 3.54}
{"variant": "QRTHTGEKPYTCPECGEIFAHSSN", "protein stability index": 2.98}
{"variant": "QRTHTGEKPYICPECGEIFAHSSN", "protein stability index": 3.1}
{"variant": "QRTHTGEKPYMCPECGEIFAHSSN", "protein stability index": 2.97}
{"variant": "QRTHTGEKPYNCPECGEIFAHSSN", "protein stability index": 3.52}
{"variant": "QRTHTGEKPYRCPECGEIFAHSSN", "protein stability index": 3.23}
{"variant": "QRTHTGEKPYHCPECGEIFAHSSN", "protein stability index": 3.39}
{"variant": "QRTHTGEKPYFCPECGEIFAHSSN", "protein stability index": 3.23}
{"variant": "QRTHTGEKPYLCPECGEIFAHSSN", "protein stability index": 3.39}
{"variant": "QRTHTGEKPYECPECGEIFAHSSN", "protein stability index": 3.99}
{"variant": "QRTHTGEKPYSCPECGEIFAHSSN", "protein stability index": 3.83}
{"variant": "QRTHTGEKPYCCPECGEIFAHSSN", "protein stability index": 3.62}
{"variant": "QRTHTGEKPYQCPECGEIFAHSSN", "protein stability index": 3.13}
{"variant": "QRTHTGEKPYPCPECGEIFAHSSN", "protein stability index": 4.12}
{"variant": "QRTHTGEKPYDCPECGEIFAHSSN", "protein stability index": 4.28}
